# In publication doi:10.1101/2023.05.02.539095 (bioRxiv, 2023):
# B1: MSMEG_0317-His (wild type, made in E. coli) (natural protein)
# chain: MNRAVALRIAACGLLGLGAALLIAALLLTTYTKGKIAKIPLDIDTSLVSDGTATAFDPDSLVAERFKIDRDVPVALQQQMSVEAPSNADVVTFQVGTTLRRTDRQQDAGLLLALVDTVTMNRNTAEAVSSENNPGGAVQKPRAIEDEKPPTNIALPHEGLTYRFPFDTEKKTYPFFDPIAQKAFDANYDGEEDVNGLTTYRFVQNVGYDADGKLADPIKYSSLYEDDADASVTARAEVWGVPGEPDESITMDRFYAASRTFWVDPVSGTIVKSEEHGYQYYAREALKPEVTYVDFKVTTNEESVESQVAAASDERDRIALWTRILPITFTALGLVSLVGGAVLGSFALRTESTLIDPGLDTADHGFFDTQGIQVPGAEAKTEKLPAQRPTDLPPDRPI
# Target: the molecule itself
# Assay: SEC-MALS
protein,measurement,value
B1,stoichiometry N,2
